These binders were tested against Human Galectin-3 protein (Acro Biosystems, GA3-H5129) (human) (UniProt P17931) (assay: ELISA, INSR binding to coated Gal3 with 3 ug/mL antibody).
Sequence of Human Galectin-3 protein (Acro Biosystems, GA3-H5129) (human) (P17931 2-250): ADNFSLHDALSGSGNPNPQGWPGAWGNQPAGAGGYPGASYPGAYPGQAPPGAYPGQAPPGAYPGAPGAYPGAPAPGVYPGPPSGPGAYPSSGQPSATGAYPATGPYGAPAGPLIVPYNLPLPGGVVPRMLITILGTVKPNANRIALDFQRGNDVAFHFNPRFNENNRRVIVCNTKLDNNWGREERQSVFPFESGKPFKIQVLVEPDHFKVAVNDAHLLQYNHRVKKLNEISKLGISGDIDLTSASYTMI

| Gal3-INSR binding left, % of unblocked sample [%] | Binder |
| --- | --- |
| < 5 | 4A11.2B5 (antibody, V domains shown) VH: QVQLQQSGPELVKPGASVKISCKASGYSFTNYYIHWVKQRPGQGLEWIGWIYPGSGNTNYNEKFKGKATLTADTSSSTTNMQLSSLTSEDSAVYYCSTAPGGFDVWGSGTTVTVSS VL: DIVMTQAAFSNPVTLGTSASISCRSSKSLLHSDGITYLYWYLQRPGQSPQLLIYRMSNLASGVPDRFSGSGSGTDFTLRISRVEAEDVGVYYCAQMLEFPLTFGAGTKLELKR |
| < 5 | 6H6.2D6 (antibody, V domains shown) VH: QIQLVQSGPELKKPGETVKISCKASGYTFTTYGMSWVKQAPGKGLKWMAWINTYSGVPTYADDFKGRFAFSLETSASTAYLQINNLTNEDTATYFCARGPYAMDYWGQGTSVTVSS VL: DIQMTQTTSSLSASLGDRVTISCSASQGISNYLNWYQQKPDGTVKLLIYYTSSLHSGVPSRFSGSGSGTDYSLTISNLEPEDIATYYCQQYSELPYTFGSGTKLEIKR |

Continued, binder first:

| Binder | Gal3-INSR binding left, % of unblocked sample [%] |
| --- | --- |
| 2D10.2B2 (antibody, V domains shown) VH: QVQLQQSGPELVKPGASVKISCKASGYTFTDYYINWVKQRPGQGLEWIGWIYPGSNDTKYNEKFKGKATLTVDTSSSTAYMQLGSLTSEDSAVYFCANYFGCSGWFFDVWGTGTTVTVSS VL: DIVMTQAAFSNPVTLGTSASISCRSSKSLLHSDGITYLYWYLQRPGQSPQLLIYRMSNLASGVPDRFSGSGSGTDFTLRISRVEAEDVGVYYCAQMIEFPLTFGAGTILELKR | < 5 |
| 20D11.2C6 (antibody, V domains shown) VH: EVQLQQSGPELVKPGASVKISCKASGYTFTDFYINWVKQSHGKSLEWIGDINPKNGGINYNPKFKIKATLTVDKSSSTSYMDLRGLTSEDSAVYYCTSGYGFPYWGQGTLVTVSA VL: DIQMNQSPSSLSASLGDTITITCRASQNIYIWLSWYQQKPGNIPKLLIYKASNLHTGVPSRFSGSGSGTDFTLTISTLQPEDIATYFCLQGQSYPLTFGAGTKLEMKR | < 5 |
